Source: patent US20250163127A1

Experiments:
[1] = molecular target: CTLA-4 (human); assay: flow cytometry, cells expressing CTLA-4
[2] = molecular target: CD28 (human) (UniProt P10747); assay: flow cytometry, cells expressing CD28
[3] = molecular target: PD-L1 (human); assay: flow cytometry, cells expressing PD-L1
Chain of PD-L1 (human) (chain, as listed by the source): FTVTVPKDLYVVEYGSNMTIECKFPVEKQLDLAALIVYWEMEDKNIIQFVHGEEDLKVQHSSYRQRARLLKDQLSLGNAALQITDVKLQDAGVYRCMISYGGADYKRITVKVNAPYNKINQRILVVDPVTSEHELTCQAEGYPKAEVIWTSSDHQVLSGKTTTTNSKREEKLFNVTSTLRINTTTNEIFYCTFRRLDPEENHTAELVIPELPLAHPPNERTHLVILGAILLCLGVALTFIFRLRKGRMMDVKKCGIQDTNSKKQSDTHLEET

Chain of CTLA-4 (human) (chain, as listed by the source): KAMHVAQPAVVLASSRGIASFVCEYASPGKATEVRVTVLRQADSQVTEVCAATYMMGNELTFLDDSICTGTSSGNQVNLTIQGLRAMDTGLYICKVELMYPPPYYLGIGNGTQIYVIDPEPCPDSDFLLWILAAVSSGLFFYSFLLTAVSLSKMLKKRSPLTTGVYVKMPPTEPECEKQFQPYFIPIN

Row | Binder | MFI [1] [MFI] | parental ratio [1] | MFI [2] [MFI] | parental ratio [2] | MFI [3] [MFI] | parental ratio [3]
1 | variant CD80 L70Q/A91G/T110A/I118V/T120S/T130A (Fc fusion) VIHVTKEVKEVATLSCGHNVSVEELAQTRIYWQKEKKMVLTMMSGDMNIWPEYKNRTIFDITNNLSIVIQALRPSDEGTYECVVLKYEKDGFKREHLAEVTLSVKADFPAPSISDFEVPSSNIRRIICSASGGFPEPHLSWLENGEELNAINTTVSQDPETELYAVSSKLDFNMTTNHSFMCLIKYGHLRVNQTFNWNTTKQEHFPDN | 14 | 0.07 | 8 | 0.09 | 5 | 0.07
2 | variant CD80 V22A/L70Q/S121P (Fc fusion) VIHVTKEVKEVATLSCGHNVSAEELAQTRIYWQKEKKMVLTMMSGDMNIWPEYKNRTIFDITNNLSIVIQALRPSDEGTYECVVLKYEKDAFKREHLAEVTLSVKADFPTPSISDFEIPTPNIRRIICSTSGGFPEPHLSWLENGEELNAINTTVSQDPETELYAVSSKLDFNMTTNHSFMCLIKYGHLRVNQTFNWNTTKQEHFPDN | 7 | 0.04 | 5 | 0.06 | 5 | 0.07
3 | variant CD80 A12V/S15F/Y31H/M38L/T41G/M43L/D90N/T130A/P137L/N149D/N152T (Fc fusion) VIHVTKEVKEVVTLFCGHNVSVEELAQTRIHWQKEKKLVLGMLSGDMNIWPEYKNRTIFDITNNLSIVILALRPSDEGTYECVVLKYEKNAFKREHLAEVTLSVKADFPTPSISDFEIPTSNIRRIICSASGGFPELHLSWLENGEELDAITTTVSQDPETELYAVSSKLDFNMTTNHSFMCLIKYGHLRVNQTFNWNTTKQEHFPDN | 6 | 0.03 | 6 | 0.06 | 5 | 0.08
4 | variant CD80 I67F/L70R/E88G/A91G/I118V/T120S/T130A (Fc fusion) VIHVTKEVKEVATLSCGHNVSVEELAQTRIYWQKEKKMVLTMMSGDMNIWPEYKNRTIFDITNNLSFVIRALRPSDEGTYECVVLKYGKDGFKREHLAEVTLSVKADFPTPSISDFEVPSSNIRRIICSASGGFPEPHLSWLENGEELNAINTTVSQDPETELYAVSSKLDFNMTTNHSFMCLIKYGHLRVNQTFNWNTTKQEHFPDN | 6 | 0.03 | 5 | 0.05 | 6 | 0.08
5 | variant CD80 A91G/F92L/F108L/I118V/T120S (Fc fusion) VIHVTKEVKEVATLSCGHNVSVEELAQTRIYWQKEKKMVLTMMSGDMNIWPEYKNRTIFDITNNLSIVILALRPSDEGTYECVVLKYEKDGLKREHLAEVTLSVKADLPTPSISDFEVPSSNIRRIICSTSGGFPEPHLSWLENGEELNAINTTVSQDPETELYAVSSKLDFNMTTNHSFMCLIKYGHLRVNQTFNWNTTKQEHFPDN | 128 | 0.61 | 50 | 0.53 | 16 | 0.11
6 | variant CD80 E24G/R29D/Y31L/Q33H/K36G/M38I/T41A/M43R/M47T/F59L/E81V/L85R/K89N/A91T/F92P/K93V/R94L/H96R/N149S/C182S (Fc fusion) VIHVTKEVKEVATLSCGHNVSVEGLAQTDILWHKEGKIVLAMRSGDTNIWPEYKNRTILDITNNLSIVILALRPSDEGTYVCVVRKYENDTPVLERLAEVTLSVKADFPTPSISDFEIPTSNIRRIICSTSGGFPEPHLSWLENGEELSAINTTVSQDPETELYAVSSKLDFNMTTNHSFMSLIKYGHLRVNQTFNWNTTKQEHFPDN | 1020 | 0.02 | 1070 | 0.08 | 1120 | 0.06
7 | variant CD80 R29V/M43Q/E81R/L85I/K89R/D90L/A91E/F92N/K93Q/R94G (Fc fusion) VIHVTKEVKEVATLSCGHNVSVEELAQTVIYWQKEKKMVLTMQSGDMNIWPEYKNRTIFDITNNLSIVILALRPSDEGTYRCVVIKYERLENQGEHLAEVTLSVKADFPTPSISDFEIPTSNIRRIICSTSGGFPEPHLSWLENGEELNAINTTVSQDPETELYAVSSKLDFNMTTNHSFMCLIKYGHLRVNQTFNWNTTKQEHFPDN | 996 | 0.02 | 1030 | 0.08 | 1580 | 0.09
